Biological target: recombinant mouse IGF-1 (insulin-like growth factor 1) (mouse, UniProt P05017 49-118)
Assay: cell-based or functional assay

Chain of recombinant mouse IGF-1 (insulin-like growth factor 1) (P05017 49-118): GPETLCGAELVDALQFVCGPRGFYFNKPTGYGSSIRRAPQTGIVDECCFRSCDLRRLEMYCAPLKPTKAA

PI3K phosphorylation (Western blot) in P10 RGCs after co-administration of IGF-1 and IGFBPL1, compared to the control group: 6 fold
mTOR phosphorylation (Western blot) in P10 RGCs after co-administration of IGF-1 and IGFBPL1, compared to the control group: 3 fold
B1: recombinant mouse IGFBPL1 (insulin-like growth factor binding protein-like 1) (natural protein, UniProt Q80W15 18-270, looked up)
chain: LGLRDAGRRHPECSPCQQDRCPAPSPCPAPWISARDECGCCARCLGAEGASCGGPVGSRCGPGLVCASRASGTAPEGTGLCVCAQRGAVCGSDGRSYSSICALRLRARHAPRAHHGHLHKARDGPCEFAPVVLMPPRDIHNVTGTQVFLSCEVKAVPTPVITWKKVKHSPEGTEGLEELPGDHVNIAVQVRGGPSDHETTSWILINPLRKEDEGVYHCHAANAIGEAQSHGTVTVLDLNRYKSLYSSVPGDLL

— article PMC5794803, “IGFBPL1 Regulates Axon Growth through IGF-1-mediated Signaling Cascades” (Scientific Reports, 2018)
